Data set [1] concerns the target detyrosinated microtubules (rat cardiomyocytes).
Data set [2] addresses detyrosinated microtubules (human cardiomyocytes).

The text below walks through data of patent US20180326022.

B1: human tubulin tyrosine ligase (TTL) (protein)
chain: MYTFVVRDENSSVYAEVSRLLLATGHWKRLRRDNPRFNLMLGERNRLPFGRLGHEPGLVQLVNYYRGADKLCRKASLVKLIKTSPELAESCTWFPESYVIYPTNLKTPVAPAQNGIQPPISNSRTDEREFFLASYNRKKEDGEGNVWIAKSSAGAKGEGILISSEASELLDFIDNQGQVHVIQKYLEHPLLLEPGHRKFDIRSWVLVDHQYNIYLYREGVLRTASEPYHVDNFQDKTCHLTNHCIQKEYSKNYGKYEEGNEMFFKEFNQYLTSALNITLESSILLQIKHIIRNCLLSVEPAISTKHLPYQSFQLFGFDFMVDEELKVWLIEVNGAPACAQKLYAELCQGIVDIAISSVFPPPDVEQPQTQPAAFIKL
Turning to B1, in data set [1], the “amount of polymerized, detyrosinated MTs (immunofluorescence and immunoblot) after AdV-TTL” value is given as 3-4 fold reduction in the amount of polymerized, detyrosinated MTs; the detyr Tubulin, western blotting relative to null, TTL (0.01) (relative to null) stood at 0.74; the detyr Tubulin, western blotting relative to null, TTL (0.1) (relative to null) was 0.28; the tyr Tubulin, western blotting relative to null, TTL (0.01) (relative to null) was 2.63. In addition, the tyr Tubulin, western blotting relative to null, TTL (0.1) (relative to null) in data set [1] is 3.32. Besides, in data set [2], the “density of dTyr-MTs and dTyr-MT/total MT ratio (immunofluorescence) after AdV-TTL for 48 hrs” value is “decreased the density of dTyr-MTs and the proportion of total MTs that were detyrosinated”.
